# In the supplement of paper PMC9112550, “Optimization of the antimicrobial peptide Bac7 by deep mutational scanning” (BMC Biology, 2022):
# System: Escherichia coli TOP10
# Experiment: shrunken log2 fold change of peptide-encoding DNA abundance (4.5 h post-induction vs induction); higher = less antimicrobial activity (less host growth inhibition)
# Conditions: time post-induction: 4.5 h; library: site-saturation at positions 5, 18, 19, 20
# 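Also: peptides expressed intracellularly from a pBAD plasmid library in pooled LB shake-flask culture, induced with 0.3% L-arabinose, DNA abundance read by NGS, three biological replicates, DESeq2 with apeglm shrinkage.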
row,Sequence,shrunken log2 fold change
1,RRIRKRPPRLPRPRPRPYRNPRP,0.00408
2,RRIRSRPPRLPRPRPRPNWSPRP,-0.249
3,RRIRDRPPRLPRPRPRPNYGPRP,-0.0075
4,RRIRGRPPRLPRPRPRPSYVPRP,0.112
5,RRIRLRPPRLPRPRPRPLKYPRP,-0.0803
6,RRIRMRPPRLPRPRPRPKNEPRP,0.881
7,RRIRFRPPRLPRPRPRPDRRPRP,-0.39
8,RRIRMRPPRLPRPRPRPKEIPRP,0.38
9,RRIRRRPPRLPRPRPRPGCKPRP,0.12
10,RRIRWRPPRLPRPRPRPTKHPRP,-0.118
11,RRIRGRPPRLPRPRPRPLRGPRP,1.29
12,RRIRTRPPRLPRPRPRPFFGPRP,0.0239
13,RRIRHRPPRLPRPRPRPRCYPRP,-0.154
14,RRIRHRPPRLPRPRPRPTDNPRP,-0.177
15,RRIRVRPPRLPRPRPRPTMAPRP,0.235
16,RRIRKRPPRLPRPRPRPCNQPRP,0.0585
17,RRIRDRPPRLPRPRPRPLLQPRP,0.287
18,RRIRERPPRLPRPRPRPYQIPRP,-0.388
19,RRIRPRPPRLPRPRPRPAPTPRP,0.704
20,RRIRGRPPRLPRPRPRPQWEPRP,0.0931
21,RRIRARPPRLPRPRPRPANFPRP,0.137
22,RRIRPRPPRLPRPRPRPTWSPRP,0.324
23,RRIRSRPPRLPRPRPRPTINPRP,-0.229
24,RRIRPRPPRLPRPRPRPLFAPRP,0.206
25,RRIRYRPPRLPRPRPRPRVVPRP,-0.405

row,Sequence,shrunken log2 fold change
1,RRIRWRPPRLPRPRPRPMTRPRP,0.0972
2,RRIRDRPPRLPRPRPRPNVYPRP,0.0576
3,RRIRRRPPRLPRPRPRPKFIPRP,-0.207
4,RRIRSRPPRLPRPRPRPPMWPRP,0.54
5,RRIRQRPPRLPRPRPRPTWWPRP,0.314
6,RRIRPRPPRLPRPRPRPAKPPRP,0.196
7,RRIRSRPPRLPRPRPRPNCAPRP,-0.172
8,RRIRHRPPRLPRPRPRPAFQPRP,-0.0477
9,RRIRVRPPRLPRPRPRPCSIPRP,-0.0267
10,RRIRYRPPRLPRPRPRPACAPRP,-0.236
11,RRIRTRPPRLPRPRPRPMYVPRP,0.0319
12,RRIRDRPPRLPRPRPRPQKMPRP,-0.0885
13,RRIRSRPPRLPRPRPRPPAVPRP,0.711
14,RRIRKRPPRLPRPRPRPIHFPRP,-0.241
15,RRIRQRPPRLPRPRPRPQKWPRP,0.0876
16,RRIRDRPPRLPRPRPRPYRAPRP,-0.118
17,RRIRVRPPRLPRPRPRPITYPRP,-0.911
18,RRIRTRPPRLPRPRPRPVKRPRP,0.0411
19,RRIRARPPRLPRPRPRPEIRPRP,0.132
20,RRIRDRPPRLPRPRPRPTPQPRP,0.0786
21,RRIRVRPPRLPRPRPRPSEPPRP,-0.11
22,RRIRFRPPRLPRPRPRPMGRPRP,0.103
23,RRIRCRPPRLPRPRPRPNVPPRP,-0.154
24,RRIRERPPRLPRPRPRPYYLPRP,-0.827
25,RRIRHRPPRLPRPRPRPTEFPRP,-0.153
